The chains are these.
B1: Notch homolog 2 N-terminal-like protein A (Homo sapiens), Q7Z3S9 (parent)
chain: MCVTYHNGTGYCKCPEGFLGEYCQHRDPCEKNRCQNGGTCVAQAMLGKATCRCASGFTGEDCQYSTSHPCFVSRPCLNGGTCHMLSRDTYECTCQVGFTGKECQWTDACLSHPCANGSTCTTVANQFSCKCLTGFTGQKCETDVNECDIPGHCQHGGTCLNLPGSYQCQCLQGFTGQYCDSLYVPCAPSPCVNGGTCRQTGDFTFECNCLPETVRRGTELWERDREVWNGKEHDEN
partner: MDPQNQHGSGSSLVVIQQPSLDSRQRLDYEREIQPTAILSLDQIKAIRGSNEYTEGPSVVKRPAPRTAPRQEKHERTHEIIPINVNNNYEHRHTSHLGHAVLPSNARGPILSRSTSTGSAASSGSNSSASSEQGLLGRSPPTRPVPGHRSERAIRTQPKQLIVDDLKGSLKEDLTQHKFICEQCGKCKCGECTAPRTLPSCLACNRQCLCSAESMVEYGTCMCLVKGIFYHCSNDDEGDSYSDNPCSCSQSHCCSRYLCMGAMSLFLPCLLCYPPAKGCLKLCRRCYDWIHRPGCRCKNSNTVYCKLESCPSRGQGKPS
B2: Protein FAM168A (Homo sapiens), Q92567 (parent)
chain: MNPVYSPVQPGAPYGNPKNMAYTGYPTAYPAAAPAYNPSLYPTNSPSYAPEFQFLHSAYATLLMKQAWPQNSSSCGTEGTFHLPVDTGTENRTYQASSAAFRYTAGTPYKVPPTQSNTAPPPYSPSPNPYQTAMYPIRSAYPQQNLYAQGAYYTQPVYAAQPHVIHHTTVVQPNSIPSAIYPAPVAAPRTNGVAMGMVAGTTMAMSAGTLLTTPQHTAIGAHPVSMPTYRAQGTPAYSYVPPHW
partner: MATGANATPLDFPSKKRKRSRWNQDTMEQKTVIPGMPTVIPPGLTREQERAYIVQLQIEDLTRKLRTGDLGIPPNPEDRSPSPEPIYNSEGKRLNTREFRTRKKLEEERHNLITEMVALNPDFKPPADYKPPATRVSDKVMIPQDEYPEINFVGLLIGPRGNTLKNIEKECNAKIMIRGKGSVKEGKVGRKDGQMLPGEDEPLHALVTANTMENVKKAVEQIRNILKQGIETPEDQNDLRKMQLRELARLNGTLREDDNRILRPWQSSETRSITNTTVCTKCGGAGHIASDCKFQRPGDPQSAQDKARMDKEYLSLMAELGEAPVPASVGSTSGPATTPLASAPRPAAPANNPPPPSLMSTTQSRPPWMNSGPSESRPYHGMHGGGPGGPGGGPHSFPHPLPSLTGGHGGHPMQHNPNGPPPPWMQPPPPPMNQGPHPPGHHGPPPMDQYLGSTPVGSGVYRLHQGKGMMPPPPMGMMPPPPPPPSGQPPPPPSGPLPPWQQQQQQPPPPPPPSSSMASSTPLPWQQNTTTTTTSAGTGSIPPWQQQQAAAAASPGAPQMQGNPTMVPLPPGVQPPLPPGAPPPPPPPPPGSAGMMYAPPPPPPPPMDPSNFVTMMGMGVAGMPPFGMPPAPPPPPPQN
B3: Zinc finger protein Aiolos (Homo sapiens), Q9UKT9 (parent)
chain: MEDIQTNAELKSTQEQSVPAESAAVLNDYSLTKSHEMENVDSGEGPANEDEDIGDDSMKVKDEYSERDENVLKSEPMGNAEEPEIPYSYSREYNEYENIKLERHVVSFDSSRPTSGKMNCDVCGLSCISFNVLMVHKRSHTGERPFQCNQCGASFTQKGNLLRHIKLHTGEKPFKCHLCNYACQRRDALTGHLRTHSVEKPYKCEFCGRSYKQRSSLEEHKERCRTFLQSTDPGDTASAEARHIKAEMGSERALVLDRLASNVAKRKSSMPQKFIGEKRHCFDVNYNSSYMYEKESELIQTRMMDQAINNAISYLGAEALRPLVQTPPAPTSEMVPVISSMYPIALTRAEMSNGAPQELEKKSIHLPEKSVPSERGLSPNNSGHDSTDTDSNHEERQNHIYQQNHMVLSRARNGMPLLKEVPRSYELLKPPPICPRDSVKVINKEGEVMDVYRCDHCRVLFLDYVMFTIHMGCHGFRDPFECNMCGYRSHDRYEFSSHIARGEHRALLK
partner: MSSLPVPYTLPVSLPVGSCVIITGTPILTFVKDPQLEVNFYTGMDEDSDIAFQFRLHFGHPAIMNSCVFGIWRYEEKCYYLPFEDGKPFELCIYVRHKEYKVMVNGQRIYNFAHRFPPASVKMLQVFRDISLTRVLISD
B4: U3 small nucleolar RNA-associated protein 14 homolog C (Homo sapiens), Q5TAP6 (parent)
chain: MNVNQVAENLALSHQEELVDLPKNYPLSENEDEGDSDGERKHQKLLEAIISLDGKNRRKLAERSEASLKVSEFSVSSEGSGEKLGLADLLEPVKTSSSLATVKKQLNRVKSKKVVELPLNKEKIEQIHREVAFSKTSQVLSKWDPIILKNQQAEQLVFPLGKEQPAIAPIEHALSGWKARTPLEQEIFNLLHKNKQPVTDPLLTPMEKASLQAMSLEEAKMHRAELQRARALQSYYEAKARKEKKIKSKKYHKVVKKGKAKKALKEFEQLQKVNPTVALEEMEKIENARMMERMSLKHQNSGKWAKSKAIMAKYDLEARQAMQEQLAKNKELTQKLQVASESEEEEGGTEVEELLVPHVANEVQMNVDGPNPWMFRSCTSDTKEAATQEDPEQVPELAAHEVSASEAEERPVAEEEILLREFEERQSLRKRSELNQDAEPASSQETKDSSSQEVLSELRALSQKLKEKHQSRKQKASSEGTVPQVQREEPAPEEAEPLLLQRSERVQTLEELEELGKEDCFQNKELPRPVLEGQQSERTPNNRPDAPKEKKEKEQLINLQNFLTTQSPSVRSLAVPTIIEELEDEEERDQRQMIKEAFAGDDVIRDFLKEKREAVEASKPKDVDLTLPGWGEWGGVGLKPSAKKRRQFLIKAPEGPPRKDKNLPNVIISEKRNIHAAAHQVQVLPYPFTHHRQFERTIQTPIGSTWNTQRAFQKLTTPKVVTKPGHIIKPIKAEDVGYQSSSRSDLPVIQRNPKRITTRHNKEEKL
B5: NIF3-like protein 1 (Homo sapiens), Q9GZT8 (parent)
chain: MLSSCVRPVPTTVRFVDSLICNSSRSFMDLKALLSSLNDFASLSFAESWDNVGLLVEPSPPHTVNTLFLTNDLTEEVMEEVLQKKADLILSYHPPIFRPMKRITWNTWKERLVIRALENRVGIYSPHTAYDAAPQGVNNWLAKGLGACTSRPIHPSKAPNYPTEGNHRVEFNVNYTQDLDKVMSAVKGIDGVSVTSFSARTGNEEQTRINLNCTQKALMQVVDFLSRNKQLYQKTEILSLEKPLLLHTGMGRLCTLDESVSLATMIDRIKRHLKLSHIRLALGVGRTLESQVKVVALCAGSGSSVLQGVEADLYLTGEMSHHDTLDAASQGINVILCEHSNTERGFLSDLRDMLDSHLENKINIILSETDRDPLQVV

In the first assay the parent is B1. The conditions noted are these: with spy1_human SPRY1, O43609.
As to A115T, the “effect of a mutation on the interaction” value is given as “with no effect”.

In a further assay the parent is B2. The conditions noted are these: with sf01_human SF1, Q15637.
Regarding P122R, the “effect of a mutation on the interaction” value is given as “disrupting interaction strength”.

Variants of B3 are the subject of the next assay. To be noted: with ppl13_human LGALS14, Q8TCE9.
Turning to N119D, the “effect of a mutation on the interaction” value was “with no effect”.
Consider A24V, for which the “effect of a mutation on the interaction” value is reported as “with no effect”.

In a further assay the parent is B4. The conditions noted are these: with myome_human PDE4DIP.
K247E: the “effect of a mutation on the interaction” value is reported as “with no effect”.
On the same count and under the same terms, to R672H belongs “with no effect”.
The same measure, in the same setting: under I170V stands “with no effect”; under A652T, “with no effect”; under V109D, “with no effect”.

The variants in the next assay derive from B5. To be noted: with zn446_human ZNF446, Q9NWS9.
Sequence of zn446_human ZNF446, Q9NWS9 (Q9NWS9 whole entry): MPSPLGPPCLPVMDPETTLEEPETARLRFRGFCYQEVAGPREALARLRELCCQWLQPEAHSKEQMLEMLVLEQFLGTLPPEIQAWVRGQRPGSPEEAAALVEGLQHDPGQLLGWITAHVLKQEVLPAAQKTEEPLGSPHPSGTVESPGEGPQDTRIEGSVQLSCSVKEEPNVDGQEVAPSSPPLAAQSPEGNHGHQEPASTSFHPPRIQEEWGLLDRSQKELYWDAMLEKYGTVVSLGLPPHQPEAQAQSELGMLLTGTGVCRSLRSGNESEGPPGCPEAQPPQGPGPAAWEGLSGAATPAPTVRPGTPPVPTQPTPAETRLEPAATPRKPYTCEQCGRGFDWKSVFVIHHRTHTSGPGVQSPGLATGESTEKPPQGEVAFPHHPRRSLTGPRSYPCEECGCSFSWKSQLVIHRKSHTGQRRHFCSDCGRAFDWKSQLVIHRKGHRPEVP
With T324I, the “effect of a mutation on the interaction” value is “with no effect”.

The variants in a further assay derive from B5. To be noted: with rgs20_human RGS20, O76081.
Sequence of rgs20_human RGS20, O76081 (O76081 whole entry): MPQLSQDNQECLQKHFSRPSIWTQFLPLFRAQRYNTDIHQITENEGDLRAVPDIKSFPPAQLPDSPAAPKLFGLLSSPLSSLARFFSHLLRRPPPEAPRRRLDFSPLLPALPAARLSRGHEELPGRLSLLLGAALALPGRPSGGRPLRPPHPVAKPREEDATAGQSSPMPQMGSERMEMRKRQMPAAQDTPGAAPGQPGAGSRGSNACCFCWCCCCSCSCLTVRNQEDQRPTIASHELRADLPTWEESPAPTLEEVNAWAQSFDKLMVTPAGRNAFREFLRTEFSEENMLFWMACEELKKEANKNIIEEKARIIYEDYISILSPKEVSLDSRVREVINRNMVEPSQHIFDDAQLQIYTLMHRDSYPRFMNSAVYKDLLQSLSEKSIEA
On to T324I, for which the “effect of a mutation on the interaction” value is given as “with no effect”.
